Reference: the MegaScale stability set (Tsuboyama et al. 2023)

B1: EEHEE_rd4_0003 (parent)
chain: KKVTINGVEIKFNNPEEAVKFALELAKRLNLRIEFHGDQIKIE

Variants of: B1
Assay: folding stability dG (cDNA display proteolysis); higher = more stable
Conditions: PBS, room temperature

Row | Variant | folding stability dG [kcal/mol]
1 | KKVTINGVEIKFNNPEEVVKFALELAKRLNLRIEFHGDQIKIE [A18V] | 2.48
2 | KKVTINGVEIKFNNPEETVKFALELAKRLNLRIEFHGDQIKIE [A18T] | 1.88
3 | KKVTINGVEIKFNNPEEAVKFLLELAKRLNLRIEFHGDQIKIE [A22L] | 2.98
4 | KKVTINGVEIKFNNPEEAVKFWLELAKRLNLRIEFHGDQIKIE [A22W] | 2.68
5 | KKVTINGVEIKFNNPEEAVKFYLELAKRLNLRIEFHGDQIKIE [A22Y] | 2.39
6 | KKVTINGVEIKFNNPEEAVKFPLELAKRLNLRIEFHGDQIKIE [A22P] | 0.416
7 | KKVTINGVEIKFNNPEEAVKFCLELAKRLNLRIEFHGDQIKIE [A22C] | 2.79
8 | KKVTINGVEIKFNNPEEAVKFFLELAKRLNLRIEFHGDQIKIE [A22F] | 2.74
9 | KKVTINGVEIKFNNPEEAVKFHLELAKRLNLRIEFHGDQIKIE [A22H] | 1.32
10 | KKVTINGVEIKFNNPEEAVKFDLELAKRLNLRIEFHGDQIKIE [A22D] | 0.407
11 | KKVTINGVEIKFNNPEEAVKFILELAKRLNLRIEFHGDQIKIE [A22I] | 3.21
12 | KKVTINGVEIKFNNPEEAVKFELELAKRLNLRIEFHGDQIKIE [A22E] | 0.979
13 | KKVTINGVEIKFNNPEEAVKFTLELAKRLNLRIEFHGDQIKIE [A22T] | 2
14 | KKVTINGVEIKFNNPEEAVKFGLELAKRLNLRIEFHGDQIKIE [A22G] | 1.58
15 | KKVTINGVEIKFNNPEEAVKFQLELAKRLNLRIEFHGDQIKIE [A22Q] | 1.22
16 | KKVTINGVEIKFNNPEEAVKFKLELAKRLNLRIEFHGDQIKIE [A22K] | 1.21
17 | KKVTINGVEIKFNNPEEAVKFNLELAKRLNLRIEFHGDQIKIE [A22N] | 0.81
18 | KKVTINGVEIKFNNPEEAVKFRLELAKRLNLRIEFHGDQIKIE [A22R] | 1.16
19 | KKVTINGVEIKFNNPEEAVKFVLELAKRLNLRIEFHGDQIKIE [A22V] | 2.74
20 | KKVTINGVEIKFNNPEEAVKFSLELAKRLNLRIEFHGDQIKIE [A22S] | 1.59

Row | Variant | folding stability dG [kcal/mol]
21 | KKVTINGVEIKFNNPEEAVKFMLELAKRLNLRIEFHGDQIKIE [A22M] | 2.59
22 | KKVTINGVEIKFNNPEEAVKWALELAKRLNLRIEFHGDQIKIE [F21W] | 2.81
23 | KKVTINGVEIKFNNPEEAVKRALELAKRLNLRIEFHGDQIKIE [F21R] | 1.76
24 | KKVTINGVEIKFNNPEEAVKSALELAKRLNLRIEFHGDQIKIE [F21S] | 1.47
25 | KKVTINGVEIKFNNPEEAVKLALELAKRLNLRIEFHGDQIKIE [F21L] | 2.03
26 | KKVTINGVEIKFNNPEEAVKKALELAKRLNLRIEFHGDQIKIE [F21K] | 1.66
27 | KKVTINGVEIKFNNPEEAVKNALELAKRLNLRIEFHGDQIKIE [F21N] | 1.27
28 | KKVTINGVEIKFNNPEEAVKTALELAKRLNLRIEFHGDQIKIE [F21T] | 1.56
29 | KKVTINGVEIKFNNPEEAVKGALELAKRLNLRIEFHGDQIKIE [F21G] | 1.16
30 | KKVTINGVEIKFNNPEEAVKEALELAKRLNLRIEFHGDQIKIE [F21E] | 1.35
31 | KKVTINGVEIKFNNPEEAVKPALELAKRLNLRIEFHGDQIKIE [F21P] | 0.505
32 | KKVTINGVEIKFNNPEEAVKHALELAKRLNLRIEFHGDQIKIE [F21H] | 1.52
33 | KKVTINGVEIKFNNPEEAVKDALELAKRLNLRIEFHGDQIKIE [F21D] | 0.978
34 | KKVTINGVEIKFNNPEEAVKQALELAKRLNLRIEFHGDQIKIE [F21Q] | 1.57
35 | KKVTINGVEIKFNNPEEAVKVALELAKRLNLRIEFHGDQIKIE [F21V] | 1.74
36 | KKVTINGVEIKFNNPEEAVKYALELAKRLNLRIEFHGDQIKIE [F21Y] | 2.49
37 | KKVTINGVEIKFNNPEEAVKMALELAKRLNLRIEFHGDQIKIE [F21M] | 1.88
38 | KKVTINGVEIKFNNPEEAVKCALELAKRLNLRIEFHGDQIKIE [F21C] | 3.19
39 | KKVTINGVEIKFNNPEEAVKIALELAKRLNLRIEFHGDQIKIE [F21I] | 2.03
40 | KKVTINGVEIKFNNPEEAVKAALELAKRLNLRIEFHGDQIKIE [F21A] | 1.85

Row | Variant | folding stability dG [kcal/mol]
41 | KKVTINGVEIKFNNPEEAGKFALELAKRLNLRIEFHGDQIKIE [V19G] | 1.54
42 | KKVTINGVEIKFNNPEEAAKFALELAKRLNLRIEFHGDQIKIE [V19A] | 2.19
43 | KKVTINGVEIKFNNPEEACKFALELAKRLNLRIEFHGDQIKIE [V19C] | 3.56
44 | KKVTINGVEIKFNNPEEANKFALELAKRLNLRIEFHGDQIKIE [V19N] | 1.83
45 | KKVTINGVEIKFNNPEEASKFALELAKRLNLRIEFHGDQIKIE [V19S] | 1.86
46 | KKVTINGVEIKFNNPEEAKKFALELAKRLNLRIEFHGDQIKIE [V19K] | 2.33
47 | KKVTINGVEIKFNNPEEALKFALELAKRLNLRIEFHGDQIKIE [V19L] | 3.07
48 | KKVTINGVEIKFNNPEEAFKFALELAKRLNLRIEFHGDQIKIE [V19F] | 2.75
49 | KKVTINGVEIKFNNPEEAQKFALELAKRLNLRIEFHGDQIKIE [V19Q] | 2.06
50 | KKVTINGVEIKFNNPEEAIKFALELAKRLNLRIEFHGDQIKIE [V19I] | 2.9
51 | KKVTINGVEIKFNNPEEARKFALELAKRLNLRIEFHGDQIKIE [V19R] | 2.5
52 | KKVTINGVEIKFNNPEEAEKFALELAKRLNLRIEFHGDQIKIE [V19E] | 2.04
53 | KKVTINGVEIKFNNPEEATKFALELAKRLNLRIEFHGDQIKIE [V19T] | 2.22
54 | KKVTINGVEIKFNNPEEAYKFALELAKRLNLRIEFHGDQIKIE [V19Y] | 2.85
55 | KKVTINGVEIKFNNPEEAPKFALELAKRLNLRIEFHGDQIKIE [V19P] | 1.04
56 | KKVTINGVEIKFNNPEEAMKFALELAKRLNLRIEFHGDQIKIE [V19M] | 2.94
57 | KKVTINGVEIKFNNPEEAHKFALELAKRLNLRIEFHGDQIKIE [V19H] | 2.21
58 | KKVTINGVEIKFNNPEEADKFALELAKRLNLRIEFHGDQIKIE [V19D] | 1.61
59 | KKVTINGVEIKFNNPEEAWKFALELAKRLNLRIEFHGDQIKIE [V19W] | 2.98
